These results are taken from paper PMC11262183, “Arid5a uses disordered extensions of its core ARID domain for distinct DNA- and RNA-recognition and gene regulation”.

As a reminder, the Kd is the concentration at which binding is half-saturated.

Sequences and labels used below:
T1: Arid5a ARID37-183 (human, UniProt Q03989 37-183)
T1 sequence: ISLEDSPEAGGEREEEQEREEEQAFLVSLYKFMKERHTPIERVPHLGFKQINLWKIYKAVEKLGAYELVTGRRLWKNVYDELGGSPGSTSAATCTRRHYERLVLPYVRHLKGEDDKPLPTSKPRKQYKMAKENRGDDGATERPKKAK

T2: Arid5a ARID (Homo sapiens) (UniProt Q03989)
T2 sequence: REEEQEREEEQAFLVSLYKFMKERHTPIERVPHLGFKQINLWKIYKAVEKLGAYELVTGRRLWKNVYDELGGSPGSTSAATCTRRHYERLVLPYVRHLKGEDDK

T3: Arid5a ARID49-152 (human, UniProt Q03989 49-152)
T3 sequence: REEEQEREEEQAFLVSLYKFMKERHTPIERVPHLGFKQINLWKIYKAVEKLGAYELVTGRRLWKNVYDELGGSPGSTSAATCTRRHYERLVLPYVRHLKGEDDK

T4: ARID49-152 K85A/Q86A (human, UniProt Q03989 49-152, K85A;Q86A)
T4 sequence: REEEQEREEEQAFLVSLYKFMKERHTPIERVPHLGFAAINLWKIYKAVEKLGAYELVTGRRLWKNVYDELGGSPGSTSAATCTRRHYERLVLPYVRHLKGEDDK

B1: 19mer_ADE (Ox40 ADE) (structured_RNA)
RNA: CACACCGUUCUAGGUGCUG
B2: 13merAT_var2 (dsDNA)
DNA 1: GCACGGTATAACG
DNA 2: CGTTATACCGTGC
B3: FAM-13merAT (dsDNA)
DNA 1: GCACAATATAACG
DNA 2: CGTTATATTGTGC
B4: 13merAT_var1 (dsDNA)
DNA 1: GCGCAATATAGCG
DNA 2: CGCTATATTGCGC
B5: 13merAT_var4 (dsDNA)
DNA 1: GCACAATACGACG
DNA 2: CGTCGTATTGTGC
B6: Il-6 3'UTR 129 nt (structured_RNA)
RNA: GGCACAGAACUUAUGUUGUUCUCUAUGGAGAACUAAAAGUAUGAGCGUUAGGACACUAUUUUAAUUAUUUUUAAUUUAUUAAUAUUUAAAUAUGUGAAGCUGAGUUAAUUUAUGUAAGUCAUAUUUAUA
B7: RBNS-9mer-fw (ssRNA)
RNA: ACAGGCAGG
B8: RBNS-9mer-rev (ssRNA)
RNA: CCUGCCUGU
B9: 13merAT (dsDNA)
DNA 1: GCACAATATAACG
DNA 2: CGTTATATTGTGC
B10: FAM-13merGC (dsDNA)
DNA 1: GCCCCGCCCGCCG
DNA 2: CGGCGGGCGGGGC

T5 sequence (O14497 999-1132): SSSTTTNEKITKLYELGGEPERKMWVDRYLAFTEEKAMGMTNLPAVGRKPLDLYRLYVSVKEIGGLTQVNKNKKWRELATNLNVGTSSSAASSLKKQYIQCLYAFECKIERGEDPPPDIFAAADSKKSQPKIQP

In one data set the target is T1, Arid5a ARID37-183. The data set can be described thus: NMR; 3.5-fold RNA; stronger than core; 20 mM Bis-Tris pH 6.5, 150 mM NaCl, 2 mM TCEP, 0.02% NaN3; NMR at 298 K; EMSA plus 10 mM MgCl2 and 0.6 ug yeast tRNA per 20 ul, 22-24 C. The following applies: protein: recombinant; tags: cloned in pET-Trx1a (TEV site); hairpin. (A gel shift assay detects complexes by their altered migration in electrophoresis.)
Turning to B1, the binding result is “binds”.

In a further data set the target is T1, Arid5a ARID37-183. Briefly: EMSA; 10 mM MgCl2, yeast tRNA; range over WT, var1, var2, var4; 20 mM Bis-Tris pH 6.5, 150 mM NaCl, 2 mM TCEP, 0.02% NaN3; NMR at 298 K; EMSA plus 10 mM MgCl2 and 0.6 ug yeast tRNA per 20 ul, 22-24 C. The following applies: protein: recombinant; tags: cloned in pET-Trx1a (TEV site); label: 5'-fluorescein on strand 1; blunt.
On to B2, for which the Kd was about 1360 nM.
The same measure, in the same setting: the value for B3 was about 1360 nM; that for B4 was about 1360 nM.
Regarding B5, the dissociation constant (Kd) was about 1360 nM.

A further data set addresses T2, Arid5a ARID (Homo sapiens). The data set can be described thus: pulldown. The conditions noted are these: 1 and 5 uM protein; 25 mM Tris pH 7.5, 150 mM KCl, 3 mM MgCl2.
Turning to AAAAAUA [7-mer AAAAATA], the binding signal (RBNS z-score of enrichment R) stood at 3.52.
Same read-out and setting: then UACAGGC [7-mer TACAGGC], with 5.55; and AAUAUAA [7-mer AATATAA], with 3.73.
On the same count and under the same terms, then GCAGGCA [7-mer GCAGGCA], with 5.88; and AGGCAGC [7-mer AGGCAGC], with 7.71; and AAAAAAA [7-mer AAAAAAA], with 3.68.
AAAUAUA [7-mer AAATATA] registered a binding signal (RBNS z-score of enrichment R) of 4.03.
With AGGCAGU [7-mer AGGCAGT], the binding signal (RBNS z-score of enrichment R) amounted to 6.38.
Still for that read-out and setting: then AGGCAGG [7-mer AGGCAGG], with 8.18.
On to ACAGGCA [7-mer ACAGGCA], for which the binding signal (RBNS z-score of enrichment R) is 11.6.
AGGCAGA [7-mer AGGCAGA] yielded a binding signal (RBNS z-score of enrichment R) of 6.46.
CAGGCAG [7-mer CAGGCAG] displayed a binding signal (RBNS z-score of enrichment R) of 13.
For the molecule CAGGCAU [7-mer CAGGCAT], the binding signal (RBNS z-score of enrichment R) amounted to 4.61.
On the same count and under the same terms, the value for AACAGGC [7-mer AACAGGC] was 4.87.
Same read-out and setting: the value for CAGGCAA [7-mer CAGGCAA] was 6.65.

The target of a further data set is T1, Arid5a ARID37-183. The data set can be described thus: NMR; 0.1-fold RNA; 20 mM Bis-Tris pH 6.5, 150 mM NaCl, 2 mM TCEP, 0.02% NaN3; NMR at 298 K; EMSA plus 10 mM MgCl2 and 0.6 ug yeast tRNA per 20 ul, 22-24 C. The following applies: protein: recombinant; tags: cloned in pET-Trx1a (TEV site).
For the molecule B6, the binding result was “binds”.

The next data set deals with T3, Arid5a ARID49-152. Briefly: NMR; 2-fold RNA; 20 mM Bis-Tris pH 6.5, 150 mM NaCl, 2 mM TCEP, 0.02% NaN3; NMR at 298 K; EMSA plus 10 mM MgCl2 and 0.6 ug yeast tRNA per 20 ul, 22-24 C. The conditions noted are these: protein: recombinant; tags: cloned in pET-Trx1a (TEV site).
Take B7: the binding result was “binds”.
B8: the binding result is listed as “binds”.

The target of a further data set is T4, ARID49-152 K85A/Q86A. Briefly: NMR; 2-fold DNA; 20 mM Bis-Tris pH 6.5, 150 mM NaCl, 2 mM TCEP, 0.02% NaN3; NMR at 298 K; EMSA plus 10 mM MgCl2 and 0.6 ug yeast tRNA per 20 ul, 22-24 C. The conditions noted are these: protein: recombinant; tags: cloned in pET-Trx1a (TEV site); blunt.
With B9, the binding result is recorded as “binds”.

The next data set concerns the target T5, Arid1a extended ARID (human, UniProt O14497 999-1132). The data set can be described thus: EMSA; 20 mM Bis-Tris pH 6.5, 150 mM NaCl, 2 mM TCEP, 0.02% NaN3; NMR at 298 K; EMSA plus 10 mM MgCl2 and 0.6 ug yeast tRNA per 20 ul, 22-24 C. The conditions noted are these: protein: recombinant; tags: cloned in pET-Trx1a (TEV site); label: 5'-fluorescein on strand 1; blunt.
On to B3, for which the binding result is given as “binds”.

The next data set has as its target T5, Arid1a extended ARID. Briefly: EMSA; similar affinity to AT; 20 mM Bis-Tris pH 6.5, 150 mM NaCl, 2 mM TCEP, 0.02% NaN3; NMR at 298 K; EMSA plus 10 mM MgCl2 and 0.6 ug yeast tRNA per 20 ul, 22-24 C. The conditions noted are these: protein: recombinant; tags: cloned in pET-Trx1a (TEV site); label: 5'-fluorescein on strand 1; blunt.
Turning to B10, the binding result is on record as “binds”.
